According to patent US20200216532A1 (Ablynx, published 2020):

What was measured:
Test in all cases: SPR, interference factor immobilized
[1] = target: T1, purified interference factor(s), Donor A
T1 construct: also called interference in serum from Donor A

[2] = target: T2, purified interference factor(s), Donor B
T2 construct: also called interference in serum from Donor B

[3] = target: T3, purified interference factor(s), Donor C
T3 construct: also called interference in serum from Donor C

Binder | % of binding of reference (=100%) [1] | % of binding of reference (=100%) [2] | % of binding of reference (=100%) [3]
SEQ ID NO: 43 (VHH, Ex. 8) DVQLVESGGGLVQPGGSLRLSCAASGFILDYYAIGWFRQAPGKEREGVLCIDASDDITYYADSVKGRFTISRDNSKNTVYLQMNSLRPEDTAVYYCATPIGLSSSCLLEYDYDYWGQGTLVTVSSGGGGSGGGSEVQLLESGGGLVQPGGSLRLSCAASGFTFRSFGMSWVRQAPGKGPEWVSSISGSGSDTLYADSVKGRFTISRDNSKNTLYLQMNSLRPEDTAVYYCTIGGSLSRSSQGTLVTVSSA | 3% | 20% | –
SEQ ID NO: 42 (VHH, Ex. 8) EVQLVESGGGLVQPGGSLRLSCAASGRTFSYNPMGWFRQAPGKGRELVAAISRTGGSTYYPDSVEGRFTISRDNAKRMVYLQMNSLRAEDTAVYYCAAAGVRAEDGRVRTLPSEYTFWGQGTQVTVSSAAAEVQLVESGGGLVQPGGSLRLSCAASGRTFSYNPMGWFRQAPGKGRELVAAISRTGGSTYYPDSVEGRFTISRDNAKRMVYLQMNSLRAEDTAVYYCAAAGVRAEDGRVRTLPSEYTFWGQGTQVTVSSA | 1% | 4% | –
SEQ ID NO: 47 (VHH, Ex. 8) VHH: EVQLVESGGGLVQPGGSLRLSCAASGSVFKINVMAWYRQAPGKGRELVAGIISGGSTSYADSVKGRFTISRDNAKNTLYLQMNSLRPEDTAVYYCAFITTESDYDLGRRYWGQGTLVTVSS | 1% | – | –
SEQ ID NO: 45 (VHH, Ex. 8; no addition) VHH: EVQLVESGGGLVQAGGSLRLSCAASRSIGRLDRMGWYRHRTGEPRELVATITGGSSINYGDFVKGRFTISIDNAKNTVYLQMNNLKPEDTAVYYCNFNKYVTSRDTWGQGTQVTVSS | 0% | – | –
SEQ ID NO: 71 (VHH, Ex. 8) VHH: EVQLVESGGGLVQPGGSLRLSCAASRSIGRLDRMGWYRHRPGEPRELVATITGGSSINYGDSVKGRFTISIDNSKNTVYLQMNSLRPEDTAVYYCNFNKYVTSRDTWGQGTLVTVSG | 88% | 105% | 87%
SEQ ID NO: 65 (VHH, Ex. 8) VHH: EVQLVESGGGLVQAGGSLRLSCAASRSIGRLDRMGWYRHRPGEPRELVATITGGSSINYGDSVKGRFTISIDNSKNTVYLQMNSLRPEDTAVYYCNFNKYVTSRDTWGQGTLVTVSS | 73% | 121% | 64%
SEQ ID NO: 38 (VHH, Ex. 8) EVQLVESGGGLVQPGGSLRLSCAASGFTFSSYAMSWVRQAPGKGLEWVSGIKSSGDSTRYAGSVKGRFTISRDNAKNTLYLQMNSLRPEDTAVYYCAKSRVSRTGLYTYDNRGQGTLVTVSSGGGGSGGGGSGGGGSGGGGSEVQLVESGGGLVQPGGSLRLSCAASGRTFNNYAMGWFRQAPGKEREFVAAITRSGVRSGVSAIYGDSVKDRFTISRDNAKNTLYLQMNSLRPEDTAVYYCAASAIGSGALRRFEYDYSGQGTLVTVSSA | 9% | 25% | 7%
SEQ ID NO: 48 (VHH, Ex. 8) VHH: EVQLVESGGGLVQPGGSLRLSCIASGLPFSTKSMGWFRQAPGKEREFVARISPGGTSRYYGDFVKGRFAISRDNAKNTTWLQMNSLKAEDTAVYYCASGERSTYIGSNYYRTNEYDYWGTGTQVTVSS | 0% | – | –
SEQ ID NO: 49 (VHH, Ex. 8; V5L, I23A, E44G, A49S, A68T, A74S, T78L, W79Y, K83R, T110Q, Q108L) VHH: EVQLLESGGGLVQPGGSLRLSCAASGLPFSTKSMGWFRQAPGKGREFVSRISPGGTSRYYGDFVKGRFTISRDNSKNTLYLQMNSLRAEDTAVYYCASGERSTYIGSNYYRTNEYDYWGQGTLVTVSS | 0% | – | –
